# Reference: the nanobody polyreactivity screen of Harvey et al. (2022)
# Assay: yeast display, Sf9 membrane polyspecificity reagent, FACS + sequencing; frameworks hold sequencing errors
# How it was run: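 Galactose induction of a Saccharomyces cerevisiae BJ5465 synthetic nanobody display library ran 36–48 hours. The cells were then stained for 1 hour at 4 °C with 10% biotinylated, detergent-solubilized Sf9 membrane reagent, pulled down on streptavidin microbeads and FACS-sorted into low and high (top ~1%) gates on expression and reagent-binding fluorescence. Labels for polyreactivity follow the gate of origin.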
row,Sequence,polyreactivity (PSR sort gate)
1,QVQLVESGGGLVQAGGSLRLSCAASGFTFLGNVMGWYRQAPGKERELVAAISITGSTSYADSVKGRFTISRDNAKNTVYLQMNSLKPEDTAVYYCAADGGQVDDSATRLYYWGQGTQVTVSS,high polyreactivity
2,QVQLVESGGGLVQAGGSLRLSCAASGFTFLINAMGWYRQAPGKERELVAAIRSGGSTNYADSVKGRFTISRDNAKNSVYFQMNSLKPEDTAVYYCAARRYYPYKYRYGYWGQGTQVTVSS,high polyreactivity
3,QVQLVESGGGLVQAGGSLRLSCAASGFTFLKNAMGWYRQAPGKERELVAAITSSGGRTYYADSVKGRFTISRDNAKNTVYLQMNSLKPEDTAVYFCIKGPLPGYDYWGQGTQVTVSS,high polyreactivity
4,QVQLVESGGGLVQAGGSLRLSCAASGFTFLLYAMGWYRQAPGKERELVAAITWSTGNTYYADSVKGRFTISRDNAKNTVYLQMNSLKPEDTAVYYCYAEYLVITWYGGVEFDYWGQGTQVTVSS,low polyreactivity
5,QVQLVESGGGLVQAGGSLRLSCAASGFTFLPAYAMGWYRQAPGKERELVAAITRGGSTYYADSVKGRFTISRDNAKNTVYLQMNSLKPEDSAVYYCNADQKFGFYRSVGDDYWGQGTQVTVSS,low polyreactivity
6,QVQLVESGGGLVQAGGSLRLSCAASGFTFLPYVMGWYRQAPGKERELVAGITRTGSTNYADSVKGRFTISRDNAKNTVYLQMNSLKPEDTAVYYCAARLKYWGDYYYWGQGTQVTVSS,low polyreactivity
7,QVQLVESGGGLVQAGGSLRLSCAASGFTFLSYAMGWYRQAPGKERELVAAISRSGGSTYYADSVKGRFTISRDNAKNTVYLQMNSLKPEDTAVYYCAARSAFRNQFSRNNYWGQGTQVTVSS,high polyreactivity
8,QVQLVESGGGLVQAGGSLRLSCAASGFTFLWYAMGWYRQAPGKERELVAGISSDGSTYADSVKGRFTISRDNAKNTVYLQMNSLKQEDTAVYYCAAVNNSSIRDNDYWGQGTQVTVSS,low polyreactivity
9,QVQLVESGGGLVQAGGSLRLSCAASGFTFLYNAMGWYRQAPGKERELVAAIDSGGNTNYADSVKGRFTISRDNAKNTVYLQMNSLKPEDTAVYYCAADVVSGGQGTADYDYWGQGTQVTVSS,low polyreactivity
10,QVQLVESGGGLVQAGGSLRLSCAASGFTFNAHAMGWYRQAPGKERELVAVITRSGGRTYYADSVKGRFTISRDNAKNTVYLQMNSLKPEDTAVYYCAKEGPSRVYQGTDSASDYWGQGTQVTVSS,high polyreactivity
11,QVQLVESGGGLVQAGGSLRLSCAASGFTFNAYAMGWYRQAPGKERELVAAINVSGGITYYADSVKGRFTISRDIAKNTVYLQMNSLKPEDTAVYYCAADVEWTSRGSYYRYYYWGQGTQVTVSS,low polyreactivity
12,QVQLVESGGGLVQAGGSLRLSCAASGFTFNAYAMGWYRQAPGKERELVAAINVSGGITYYADSVKGRFTISRDNAKNTVYLQMNSLNPEDTAVYYCAKGLDVVQRSEFDYWGQGTQVTVSS,low polyreactivity
13,QVQLVESGGGLVQAGGSLRLSCAASGFTFNFNAMGWYRQAPGKERELVAAIRWSGGNTYYADSVKGRFTISRDNAKNTVYLQMNSLKPEDTAVYYCNRVGYQSMNYWGQGTQVTVSS,low polyreactivity
14,QVQLVESGGGLVQAGGSLRLSCAASGFTFNGNAMGWYRPAPGKERELVAAITRTGTDTSYADSVKGRFTISRDNAKNTVYLQMNSLKPEDTAVYYCAAPPYNGYRYGTTGYYWGQGTQVTVSS,low polyreactivity
15,QVQLVESGGGLVQAGGSLRLSCAASGFTFNKNAMGWYRQEPRKERELVAAISSSVGSTRYADSVKGRFTISRDNAKNTVYLQRNSLKPEDTAVYYCAVYVTPHSGWWLYDYWGQGTQVTVSS,high polyreactivity
16,QVQLVESGGGLVQAGGSLRLSCAASGFTFNRNAMGWYRQAPGKERELVAAISRGGSTSYADSVKGRFTISRDNAKNTVYLQMNSLKPEDTAVYYCATYFRVYYSQYDYWGQGTQVTVTS,high polyreactivity
17,QVQLVESGGGLVQAGGSLRLSCAASGFTFNRNAMGWYRQAPGKERFVAAITGSGASTYYADSVKGRFTISRDNAKNTVYLQMNSLKPEDTAVYYCNAEYYAGRYRYDYWGQGTQVTVSS,high polyreactivity
18,QVQLVESGGGLVQAGGSLRLSCAASGFTFNRYAMGWYRQAPGKERELVAAITRRGGSTYYADSVKGRFTISRDNAKNTVYLQMNSLKPEYSAVYYCNVDFQAYGIPMDYWGQGTQVTVSS,high polyreactivity
19,QVQLVESGGGLVQAGGSLRLSCAASGFTFNWNDMGWYRQAPGKERELVAAISGGASTYYADSVKGRFTISRDNAKNTVYLQMNSLKPEDTAVYYCAADLDEWGYLFVYWGQGTQVTGSS,low polyreactivity
20,QVQLVESGGGLVQAGGSLRLSCAASGFTFNWNTMGWYRQAPGKERELVAAISSGGITYYADSVKGRFTISRDNAKNTVYLQMNSLKPEDTAVYYCNVRPFRPHNRYGYWGQFTQVTVSS,high polyreactivity
21,QVQLVESGGGLVQAGGSLRLSCAASGFTFNWYAMGWYRQAPGKERELVAAINSSGGNTYYADSVKGRFTISRDTAKNTVYLQMNSLKPDDTAVYYCVFVYVYDYYYWGQGTQVTVSS,high polyreactivity
22,QVQLVESGGGLVQAGGSLRLSCAASGFTFNYNAMGWYRQAPGKERELVAAISASGGTTYYADSVKGRFTISRDNAKNTVYLQMNSLKPEDTAVYYCAAPKLDDYDYWGQGTQVTVSS,low polyreactivity
23,QVQLVESGGGLVQAGGSLRLSCAASGFTFNYYAMGWYRQAHGKEREFVAAISRGGGRTYYADSVKGRFTISRDNAKNTVYLQMNSLKPEDTAVYYCAAQSVPYAYRLASYDYWGQGTQVTVSS,high polyreactivity
24,QVQLVESGGGLVQAGGSLRLSCAASGFTFNYYAMGWYRQAPGKERELVAAITSSGGSTYYADSVKGRFTISRDNAKNTVYLQMNSLKPEDTAVYYCNAAVYAHRYIYGFDYWGQGTQVTVSS,high polyreactivity
25,QVQLVESGGGLVQAGGSLRLSCAASGFTFNYYTMGWYRQAPGKERELVAAISGSGVSTYYADSVKGRFTISRDNAKNTVYLQMNSLKPEDTAVYYCNKLFGIYWGQGTQVTVSS,high polyreactivity
26,QVQLVESGGGLVQAGGSLRLSCAASGFTFPGYAMGWYRQAPGNEREFVAAITWSGGRTYYADSVKGRFTISRDNAKNTVYLQMNSLKPEDTAVYYCAAVYRGTWYDYDYWGQGTQVTVSS,high polyreactivity
27,QVQLVESGGGLVQAGGSLRLSCAASGFTFPHYMGWYRQAPGKERELVAAINVSGGSTSYADSVKGRFTISRDNAKNTVYLQMNSLKPEDTAVYYCAKDLRFRLFSYPSDYWGQATQVTVSS,low polyreactivity
28,QVQLVESGGGLVQAGGSLRLSCAASGFTFPIYAMGWYRQAPGKERELVAAITTRGGRTYYADSVKGRFTISRDNAKNTVYLQMNSLKPEDTAVYYCTTRGRRTDYDYWGQGTQVTVSS,high polyreactivity
29,QVQLVESGGGLVQAGGSLRLSCAASGFTFPSNGMGWYRQAPGKERELVAVIDWSDDSTYYADSVKGRFTISRDNAKNTVYLQMNSLKPEDTAVYYCNARHYLYHGYIVPKYSYGYDYWGQGTQVTVSS,low polyreactivity
30,QVQLVESGGGLVQAGGSLRLSCAASGFTFPSYAMGWYRQAPGKERELVAAISYRGGRTYYADSVKGRFTISRDNAKNTVYLQMNSLKPEDTAVYYCAAKGWYFGYGRYGYWGQGTQVTVSS,high polyreactivity
